Experiment [1] addresses T1, rat TIMP-1 (rat, UniProt P30120 24-217). Nature of the experiment: cell-based or functional assay.
For experiment [2], the target named is T1, rat TIMP-1. The experiment in a line: SPR (BIAcore), rat TIMP-1 on chip (500 RU), IgG1, bivalent fit (avidity). On the procedure: For affinity determination, monomeric fractions of affinity and SEC purified Fab fragments or purified IgG1 molecules were used. All experiments were conducted in HBS buffer at a flow rate of 20 μl/min at 25° C. on a BIAcore™ instrument. Antigens in 100 mM sodium acetate pH 5.0 were coupled to a CM 5 sensor chip using standard EDC-NHS coupling chemistry. […] All sensograms were fitted globally using BIA evaluation software. For monovalent Fab fragments a monovalent fit (Langmuir binding) and for IgGs a bivalent fit was applied.
Anti-rat TIMP-1 clone MS-BW-14 was chosen for the first in vivo study, and IgG₁ protein was produced by transient expression. Anti-human TIMP-1 clone MS-BW-3 was selected as a negative control IgG₁ and was also produced by transient expression. Purified IgG₁ proteins MS-BW-14 and MS-BW-3 were subjected to quality control in BIAcore™ and rat TIMP-1/rat MMP-13 assays. […] This increase in affinity for the IgG₁ is due to the avidity effects caused by binding of bivalent IgG₁ to immobilized rat TIMP-1 protein on the BIAcore™ chip.
In general terms: SPR reads the build-up and loss of mass on a sensor chip optically.

T1 sequence (P30120 24-217 limits assumed): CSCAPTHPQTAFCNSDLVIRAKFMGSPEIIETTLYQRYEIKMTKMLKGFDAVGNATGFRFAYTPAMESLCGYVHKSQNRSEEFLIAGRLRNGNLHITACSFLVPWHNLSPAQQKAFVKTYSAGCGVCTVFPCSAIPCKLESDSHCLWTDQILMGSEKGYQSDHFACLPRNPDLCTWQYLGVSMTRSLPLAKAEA

B1: MS-BW-14 IgG1 (antibody, V domains shown)
VH: QVQLVQSGAEVKKPGSSVKVSCKASGGTFSSYAISWVRQAPGQGLEWMGGIIPIFGTANYAQKFQGRVTITADESTSTAYMELSSLRSEDTAVYYCARWSDQSYHYYWHPYFDVWGQGTLVTVSS
VL: DIVLTQPPSVSGAPGQRVTISCSGSSSNIGSNYVSWYQQLPGTAPKLLIYDNNQRPSGVPDRFSGSKSGTSASLAITGLQSEDEADYYCQSWDLEPYVFGGGTKLTVL
notes: Variable regions of Fab MS-BW-14 cloned into human IgG1 vectors; also called IgG1 protein MS-BW-14; copies: 2 + 2
On to B1, for which, in experiment [1], the “IC50 (50 % reversal of the inhibition of rat MMP-13 by rat TIMP-1, fluorogenic peptide substrate assay)” value is roughly 7 nM. Moreover, the Kd in experiment [2] was 0.2 nM.

Source of the values: patent US20140086935A1 (Bayer, published 2014).
